Data as given in PMC7865074, “Role of PDZ-binding motif from West Nile virus NS5 protein on viral replication” (Scientific Reports, 2021).
Ends that are not written are not given here.

T1: biotinylated WNV NS5 PBM peptide (West Nile virus, also: biotinyl group, end not given here)
T1 construct: bait of the holdup assay; also called 13-mer peptide; source: synthetic peptide (solid phase, Fmoc; Proteogenix)
T1 peptide: RYEDTTLVEDTVL


Target: T1, biotinylated WNV NS5 PBM peptide
Experiment: holdup assay (automated high-throughput chromatography); biotinylated NS5 PBM peptide as bait against 259 human PDZ domains expressed in E. coli; read-out binding intensity (BI), mean of replicates; BI threshold 0.2 for a significant interaction

| Binder | BI (holdup binding intensity) |
| --- | --- |
| SH3 and multiple ankyrin repeat domains protein 3, PDZ domain (holdup construct) (domain or fragment, human, UniProt Q9BYB0 646-740, looked up, also called SHANK3; source: E. coli, PDZome V.2 library, high-throughput expression) VAVLQKRDHEGFGFVLRGAKAETPIEEFTPTPAFPALQYLESVDVEGVAWRAGLRTGDFLIEVNGVNVVKVGHKQVVALIRQGGNRLVMKVVSVT | 0.39 |
| PDZ and LIM domain protein 1, PDZ domain (holdup construct) (domain or fragment, human, UniProt O00151 3-85, looked up, also called PDLIM1; source: E. coli, PDZome V.2 library, high-throughput expression) TQQIDLQGPGPWGFRLVGGKDFEQPLAISRVTPGSKAALANLCIGDVITAIDGENTSNMTHLEAQNRIKGCTDNLTLTVARSE | < 0.15 |
| Membrane-associated guanylate kinase, WW and PDZ domain-containing protein 3, PDZ domain 2 (holdup construct) (domain or fragment, human, UniProt Q5TCQ9 410-492, looked up, also called MAGI3 _2; source: E. coli, PDZome V.2 library, high-throughput expression) RASLKKSTMGFGFTIIGGDRPDEFLQVKNVLKDGPAAQDGKIAPGDVIVDINGNCVLGHTHADVVQMFQLVPVNQYVNLTLCR | 0.61 |
| Microtubule-associated serine/threonine-protein kinase 2, PDZ domain (holdup construct) (domain or fragment, human, UniProt Q6P0Q8 1104-1192, looked up, also called MAST2; source: E. coli, PDZome V.2 library, high-throughput expression) PIIIHRAGKKYGFTLRAIRVYMGDSDVYTVHHMVWHVEDGGPASEAGLRQGDLITHVNGEPVHGLVHTEVVELILKSGNKVAISTTPLE | 0.72 |
| Na(+)/H(+) exchange regulatory cofactor NHE-RF1, PDZ domain 1 (holdup construct) (domain or fragment, human, UniProt O14745 14-94, looked up, source: E. coli, PDZome V.2 library, high-throughput expression) LCCLEKGPNGYGFHLHGEKGKLGQYIRLVEPGSPAEKAGLLAGDRLVEVNGENVEKETHQQVVSRIRAALNAVRLLVVDPE | 0.68 |
| Protein piccolo, PDZ domain (holdup construct) (domain or fragment, human, UniProt Q9Y6V0 4496-4590, looked up, also called PCLO; source: E. coli, PDZome V.2 library, high-throughput expression) RIKITRDSKDHTVSGNGLGIRIVGGKEIPGHSGEIGAYIAKILPGGSAEQTGKLMEGMQVLEWNGIPLTSKTYEEVQSIISQQSGEAEICVRLDL | < 0.15 |
| SH3 and multiple ankyrin repeat domains protein 1, PDZ domain (holdup construct) (domain or fragment, human, UniProt Q9Y566 663-757, looked up, also called SHANK1; source: E. coli, PDZome V.2 library, high-throughput expression) TVLLQKKDSEGFGFVLRGAKAQTPIEEFTPTPAFPALQYLESVDEGGVAWRAGLRMGDFLIEVNGQNVVKVGHRQVVNMIRQGGNTLMVKVVMVT | 0.39 |
| Zona Occludens 3; Tight Junction Protein 3, PDZ domain 2 (holdup construct) (domain or fragment, human, UniProt O95049 195-272, looked up, also called TJP3_2; source: E. coli, PDZome V.2 library, high-throughput expression) SVLVKRRDSEEFGVKLGSQIFIKHITDSGLAARHRGLQEGDLILQINGVSSQNLSLNDTRRLIEKSEGKLSLLVLRDR | 0.23 |
| Disks large homolog 1, PDZ domain 2 (holdup construct) (domain or fragment, human, UniProt Q12959 319-405, looked up, also called DLG1_2; source: E. coli, PDZome V.2 library, high-throughput expression) EIKLIKGPKGLGFSIAGGVGNQHIPGDNSIYVTKIIEGGAAHKDGKLQIGDKLLAVNNVCLEEVTHEEAVTALKNTSDFVYLKVAKP | 0.22 |
| PDZ domain-containing protein 7, PDZ domain 3 (holdup construct) (domain or fragment, human, UniProt Q9H5P4 862-934, looked up, also called PDZD7_3; source: E. coli, PDZome V.2 library, high-throughput expression) TVTLSKMKQSLGISISGGIESKVQPMVKIEKIFPGGAAFLSGALQAGFELVAVDGENLEQVTHQRAVDTIRRA | 0.27 |
| 26S proteasome non-ATPase regulatory subunit 9, PDZ domain (holdup construct) (domain or fragment, human, UniProt O00233 108-195, looked up, also called PSMD9; source: E. coli, PDZome V.2 library, high-throughput expression) QARDMAEAHKEAMSRKLGQSESQGPPRAFAKVNSISPGSPASIAGLQVDDEIVEFGSVNTQNFQSLHNIGSVVQHSEGKPLNVTVIRR | < 0.15 |
| Partitioning defective 3 homolog, PDZ domain 3 (holdup construct) (domain or fragment, human, UniProt Q8TEW0 590-677, looked up, also called PARD3_3; source: E. coli, PDZome V.2 library, high-throughput expression) EVPLNDSGSAGLGVSVKGNRSKENHADLGIFVKSIINGGAASKDGRLRVNDQLIAVNGESLLGKTNQDAMETLRRSMSTEGNKRGMIQ | 0.29 |
| PDZ domain-containing protein 4, PDZ domain (holdup construct) (domain or fragment, human, UniProt Q76G19 130-214, looked up, also called PDZD4; source: E. coli, PDZome V.2 library, high-throughput expression) EVELYKSSHRDKLGLMVCYRTDDEEDLGIYVGEVNPNSIAAKDGRIREGDRIIQINGVDVQNREEAVAILSQEENTNISLLVARP | < 0.15 |
| T-lymphoma invasion and metastasis-inducing protein 2, PDZ domain (holdup construct) (domain or fragment, human, UniProt Q8IVF5 890-976, looked up, also called TIAM2; source: E. coli, PDZome V.2 library, high-throughput expression) DVQLTKTGSVCDFGFAVTAQVDERQHLSRIFISDVLPDGLAYGEGLRKGNEIMTLNGEAVSDLDLKQMEALFSEKSVGLTLIARPPD | < 0.15 |
| Partitioning defective 3 homolog B, PDZ domain 1 (holdup construct) (domain or fragment, human, UniProt Q8TEW8 201-289, looked up, also called PARD3B_1; source: E. coli, PDZome V.2 library, high-throughput expression) TRTVEISGEGGPLGIHVVPFFSSLSGRILGLFIRGIEDNSRSKREGLFHENECIVKINNVDLVDKTFAQAQDVFRQAMKSPSVLLHVLP | 0.48 |
| MAGUK p55 subfamily member 5, PDZ domain (holdup construct) (domain or fragment, human, UniProt Q8N3R9 256-336, looked up, also called MPP5; source: E. coli, PDZome V.2 library, high-throughput expression) IVRIEKARDIPLGATVRNEMDSVIISRIVKGGAAEKSGLLHEGDEVLEINGIEIRGKDVNEVFDLLSDMHGTLTFVLIPSQ | < 0.15 |
| PDZ domain-containing protein GIPC3, PDZ domain (holdup construct) (domain or fragment, human, UniProt Q8TF64 112-192, looked up, source: E. coli, PDZome V.2 library, high-throughput expression) EVEVTKTEDALGLTITDNGAGYAFIKRIKEGSIINRIEAVCVGDSIEAINDHSIVGCRHYEVAKMLRELPKSQPFTLRLVQ | < 0.15 |
